{"source": "the supplement of paper PMC9112550", "about": "“Optimization of the antimicrobial peptide Bac7 by deep mutational scanning” (BMC Biology, 2022);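 further: peptides expressed intracellularly from a pBAD plasmid library in pooled LB shake-flask culture, induced with 0.3% L-arabinose, DNA abundance read by NGS, three biological replicates, DESeq2 with apeglm shrinkage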", "data": [{"system": "Escherichia coli TOP10", "assay": "shrunken log2 fold change of peptide-encoding DNA abundance (4.5 h post-induction vs induction); higher = less antimicrobial activity (less host growth inhibition)", "details": "time post-induction: 4.5 h; library: site-saturation at positions 5, 18, 19, 20", "values": [{"sequence": "RRIRDRPPRLPRPRPRPENVPRP", "shrunken log2 fold change": 0.218}, {"sequence": "RRIRNRPPRLPRPRPRPKIGPRP", "shrunken log2 fold change": -0.0153}, {"sequence": "RRIRWRPPRLPRPRPRPKWVPRP", "shrunken log2 fold change": -0.00843}, {"sequence": "RRIRYRPPRLPRPRPRPSRKPRP", "shrunken log2 fold change": 0.0647}, {"sequence": "RRIRPRPPRLPRPRPRPRFKPRP", "shrunken log2 fold change": 0.166}, {"sequence": "RRIRERPPRLPRPRPRPYPGPRP", "shrunken log2 fold change": -0.379}, {"sequence": "RRIRWRPPRLPRPRPRPVALPRP", "shrunken log2 fold change": 0.459}, {"sequence": "RRIRTRPPRLPRPRPRPFEVPRP", "shrunken log2 fold change": -0.101}, {"sequence": "RRIRFRPPRLPRPRPRPQAPPRP", "shrunken log2 fold change": 0.0778}, {"sequence": "RRIRPRPPRLPRPRPRPINEPRP", "shrunken log2 fold change": -0.54}, {"sequence": "RRIRARPPRLPRPRPRPTVEPRP", "shrunken log2 fold change": 1.19}, {"sequence": "RRIRVRPPRLPRPRPRPDHRPRP", "shrunken log2 fold change": -0.272}, {"sequence": "RRIRCRPPRLPRPRPRPKPCPRP", "shrunken log2 fold change": 0.084}, {"sequence": "RRIRKRPPRLPRPRPRPGNQPRP", "shrunken log2 fold change": 0.0471}, {"sequence": "RRIRNRPPRLPRPRPRPVVNPRP", "shrunken log2 fold change": -0.244}, {"sequence": "RRIRYRPPRLPRPRPRPPTYPRP", "shrunken log2 fold change": -0.615}, {"sequence": "RRIRLRPPRLPRPRPRPKILPRP", "shrunken log2 fold change": -0.143}, {"sequence": "RRIRFRPPRLPRPRPRPKKFPRP", "shrunken log2 fold change": -0.128}, {"sequence": "RRIRWRPPRLPRPRPRPSHEPRP", "shrunken log2 fold change": 0.0227}, {"sequence": "RRIRDRPPRLPRPRPRPNTDPRP", "shrunken log2 fold change": -0.179}, {"sequence": "RRIRVRPPRLPRPRPRPWTCPRP", "shrunken log2 fold change": -0.0943}, {"sequence": "RRIRARPPRLPRPRPRPMCWPRP", "shrunken log2 fold change": 0.737}, {"sequence": "RRIRMRPPRLPRPRPRPSDAPRP", "shrunken log2 fold change": 0.617}, {"sequence": "RRIRDRPPRLPRPRPRPCMCPRP", "shrunken log2 fold change": -0.0426}, {"sequence": "RRIRERPPRLPRPRPRPDPDPRP", "shrunken log2 fold change": -0.0294}, {"sequence": "RRIRPRPPRLPRPRPRPLGNPRP", "shrunken log2 fold change": -0.173}, {"sequence": "RRIRIRPPRLPRPRPRPWHHPRP", "shrunken log2 fold change": -0.126}, {"sequence": "RRIRQRPPRLPRPRPRPWQLPRP", "shrunken log2 fold change": -0.0199}, {"sequence": "RRIRNRPPRLPRPRPRPCMYPRP", "shrunken log2 fold change": -0.0592}, {"sequence": "RRIRKRPPRLPRPRPRPQIDPRP", "shrunken log2 fold change": 0.00239}, {"sequence": "RRIRLRPPRLPRPRPRPEVAPRP", "shrunken log2 fold change": 0.475}, {"sequence": "RRIRTRPPRLPRPRPRPQFLPRP", "shrunken log2 fold change": -0.352}, {"sequence": "RRIRPRPPRLPRPRPRPNFVPRP", "shrunken log2 fold change": -0.0668}, {"sequence": "RRIRARPPRLPRPRPRPEYAPRP", "shrunken log2 fold change": 0.672}, {"sequence": "RRIRKRPPRLPRPRPRPVVRPRP", "shrunken log2 fold change": -0.0886}, {"sequence": "RRIRGRPPRLPRPRPRPPQRPRP", "shrunken log2 fold change": 0.97}, {"sequence": "RRIRTRPPRLPRPRPRPVMCPRP", "shrunken log2 fold change": -0.222}, {"sequence": "RRIRKRPPRLPRPRPRPAVKPRP", "shrunken log2 fold change": -0.104}, {"sequence": "RRIRLRPPRLPRPRPRPNPIPRP", "shrunken log2 fold change": -0.237}, {"sequence": "RRIRMRPPRLPRPRPRPPSVPRP", "shrunken log2 fold change": 0.777}, {"sequence": "RRIRIRPPRLPRPRPRPILCPRP", "shrunken log2 fold change": -0.0872}, {"sequence": "RRIRERPPRLPRPRPRPNDEPRP", "shrunken log2 fold change": -0.0119}, {"sequence": "RRIRIRPPRLPRPRPRPKAIPRP", "shrunken log2 fold change": -0.157}, {"sequence": "RRIRQRPPRLPRPRPRPHKRPRP", "shrunken log2 fold change": -0.218}, {"sequence": "RRIRKRPPRLPRPRPRPCNFPRP", "shrunken log2 fold change": -0.132}, {"sequence": "RRIRPRPPRLPRPRPRPPCCPRP", "shrunken log2 fold change": -0.0155}, {"sequence": "RRIRSRPPRLPRPRPRPIKVPRP", "shrunken log2 fold change": -0.181}, {"sequence": "RRIRQRPPRLPRPRPRPDQNPRP", "shrunken log2 fold change": -0.377}, {"sequence": "RRIRQRPPRLPRPRPRPNDWPRP", "shrunken log2 fold change": 0.142}, {"sequence": "RRIRSRPPRLPRPRPRPSLTPRP", "shrunken log2 fold change": -0.138}, {"sequence": "RRIRNRPPRLPRPRPRPGHGPRP", "shrunken log2 fold change": -0.19}, {"sequence": "RRIRCRPPRLPRPRPRPQRWPRP", "shrunken log2 fold change": 0.294}, {"sequence": "RRIRERPPRLPRPRPRPSPCPRP", "shrunken log2 fold change": -0.229}]}]}
